The nanobody polyreactivity screen of Harvey et al. (2022)

Experiment: yeast display, Sf9 membrane polyspecificity reagent, FACS + sequencing; frameworks hold sequencing errors
Procedure, shortened: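 Nanobodies came from a synthetic yeast display library in Saccharomyces cerevisiae BJ5465, induced with galactose for 36–48 hours and stained for 1 hour at 4 °C with 10% biotinylated, detergent-solubilized Sf9 membrane reagent. Cells were enriched on streptavidin microbeads and then FACS-sorted, with low and high (top ~1%) gates set on anti-HA fluorescence for expression and streptavidin fluorescence for reagent binding. Each polyreactivity label reflects the gate a clone came from. Genes were amplified by colony PCR, sequenced by MiSeq 2 × 250 and filtered by CDR length.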

Sequence	polyreactivity (PSR sort gate)
QVQLVESGGGLVQAGGSLRLSCAASGSIFRLNALGWYRQAPGKERELVAAITWSDSSTYYADSVKGRFTISRDNAKNTVYLQMNSLKQEDTAVYYCAADPQSYKYDYWGQGTQVTVSS	low polyreactivity
QVQLVESGVGLVQAGGSLRLSCAASVYTFFIYAMRWYRHAHGQERELVARIRATGDSTYYADSVKGRFTISRDNAKNTVYLQMNSLKPDDTAVYYFNVRPVYSYREYGYWGQGTQVTVSS	high polyreactivity
QVQLVESGGGLVQAGGSLRLSCAASGSTFYSYAMGWYRQAPGKERELVAAITTSGVSTYYADSVKGRFTISRDNAKNTVYLQMNSLKPEDTAVYYCNAYFIYEGGWYYKAQYDYWGQGTQVTVSS	low polyreactivity
QVQLVESGGGLVQAGGSLGLSCAASGRIFGVYAMGWYRQAPGTERELVAAIWSGGSTYYADSVKGRFTISRDNAKNTVYLQMNSLKPEDTAVYYCAADDAYSHRSLYSHNDYWGQGTQVTVSS	low polyreactivity
QVQLVESGGGLVQAGGSLRLSCAASGRTFYPYAMGWYRQAPGKERELVARISRGGRTNYADSVKGRFTISRDNAKNTVYLQMNSLKPEDTAVYYCAADYYGSYFITEDYWGQGTQVTVSS	low polyreactivity
QVQLVESGGGLVQAGGSLRLSCAASGFTFSHYAMGWYRQAPGKEREVVADISRRGGRTYYADSVKGRFTISRDNAKNTVSLQMNSLKPEDTAVYYCAAPDESYSVWRLDGLDYWGQGTQVTVSS	high polyreactivity
QVQLVESGGGLVQAGGSLRLSCAASGRIFGGYVMGWYRQAPGKERELVAAISRRGGSTYYADSVKGRFTISRDNAKNTVYLQMNSLKPEDTAVYYCNVASFSYSYKFDYWGQGTQVTVSS	high polyreactivity
QVQLVESGGGLVQAGGSLRLSCAASGYTFLGNAMGWYRQAPGKERELVAAISSGGTTYYADSVKGRFTISRDNAKNTVYLQMNSMKPEDTSVYYCADDRVGLSSGYDFWGQGTQVTVSS	low polyreactivity
QVQLVESGGGLVQAGCSLRLSCAASGRIFTHNAMGWYRPAPGKERELVAAITSGGRTTYADSVKGRFTFSRDNAKNTVYLQMHSLNPEDTAVYYCNADTGLGSLDFDKRDYWGQGTQVTVSS	low polyreactivity
QVQLVESGGGLVQAGGSLRLSCAASGFTFGSYAMGWYRQAPGKEREFVAAIRRSGSSTYYADSVKGRFTISRDNAKNTVYLQMNSLKPEDTAVYYCAADVYRRLRRYRYYYWGQGTQVTVSS	low polyreactivity
QGQHVESGGGLVQAGGSLRLSCAASGRIFVPYAMGWYRQAPGKERELVAAITWRGGSPYYADSVKGRFTLSRDNAKNTVYLQMNSLKPVDTAVYYCNAAEASPWFWFSHLQVGMDYWGQGTQVTVSW	low polyreactivity
QVQLVESGGGLVQAGGSLRLSCAASGRTFRLYAMGWYRQAPGKERELVADITTGGGSTYYADSVKGRFTISRDNAKNTVYLQMNSLKPEDTAVYYCAAEQDTVWFLWIVDYWGQGTQVTVSS	low polyreactivity
QVQLVESGGGLVQAGGSLRLSCAASGSTLVKYAMGWYRQAPGKERELVAAISWSGGRTYYADSVKGRFTISRDNAKNTVYLQMNSLKPEDTAVYYCAARSTRFYTPGYYYWGQGTQVTVSS	high polyreactivity
QVQLVESGGGLVQAGGSLRLSCAASGSTLHYYAMGWYRQAPGKERELVAAISATGGSTYYADSVKGRFTISRDNAKNTVYLQMNSLKPEDTAVYYCARTYRSHWVYTRLDYWGQGTQVTVSS	high polyreactivity
QVQLVESGGGLVQAGGSLRLSCAASGFTFSYYAMGWYRQAPGKERELVAAISWSGGRTYYADSVKGRFTISRDNAKNTVYLQMNSLKPEDTAVYYCAVVYYGSIFVLEYDYWGQGTQVTVSS	high polyreactivity
QVQLVESGGGLVQAGGSLRLSCAASGRTFYDYAMGWYRQAHGKERELVAAIRLSGASTYYADSVKGRFTISRDNAKNTVYLQMNSLKPEDTAVYYCAARYGGRVAYRGYSYYYWGQGTQVTVSS	high polyreactivity
QVQLVESGGGLVQAGGSLRLSCAASGRIFWGSTMVWYRQAPGKEMELVAAITYRGATTYYADSVKGRFTISRDNAKNTVYLQMNSLKPEDTAVYYCAAEYYYTYGYWGQGTQVTVSS	high polyreactivity
QVQLVDSGGGLVQAGGSLRLSCAATGFTLPKYAMGWYRQAPGKERELVAAISSGGSTYYADSVKGRYTISRDNAKNTVYLQMNSLKPEDSAVYYCAAKYYYYRRDYWGQGTQVTLSS	high polyreactivity
QFQLVESGGGLVQAGVSLRLSCAASGSTFYYGMVCSRHAPRKERELVAAISSRGGTTYYADSVKGRFTISRDNAKNTVYLQMNSLKPEDTAVYYCAAPVPYYVPSRNEGDYWGQGTQVTVSS	low polyreactivity
QVQLVESGGGLVQAGGSLRLSGAASGSTCYYGMGWYRQAPGKYRELVAAISSRGGTPYYADSVKGRFTISRDNAKNTVYLQMTSLKPEDTAVDDCAAPVPYYVPRRNEGDYWGQGTQGTVSS	low polyreactivity
QVHLVESGGGLVQAGGSLRLSCAASGITFISYAMGWYRQAPGKEREFVAAITRRGGSTYYADSVKGRFTISRDNAKNTVYLQMNSLKPEDTAVYYCAARVLSLYTYYYWGQGTQVTVSS	high polyreactivity
